From patent publication US20240091374A1 (AbbVie / Abbott, published 2024) come the findings set out here.

The test deals with T1, Seizure-related homolog 6 (SEZ6) (UniProt Q53EL9 20-994, limits assumed).
T1 sequence (looked up): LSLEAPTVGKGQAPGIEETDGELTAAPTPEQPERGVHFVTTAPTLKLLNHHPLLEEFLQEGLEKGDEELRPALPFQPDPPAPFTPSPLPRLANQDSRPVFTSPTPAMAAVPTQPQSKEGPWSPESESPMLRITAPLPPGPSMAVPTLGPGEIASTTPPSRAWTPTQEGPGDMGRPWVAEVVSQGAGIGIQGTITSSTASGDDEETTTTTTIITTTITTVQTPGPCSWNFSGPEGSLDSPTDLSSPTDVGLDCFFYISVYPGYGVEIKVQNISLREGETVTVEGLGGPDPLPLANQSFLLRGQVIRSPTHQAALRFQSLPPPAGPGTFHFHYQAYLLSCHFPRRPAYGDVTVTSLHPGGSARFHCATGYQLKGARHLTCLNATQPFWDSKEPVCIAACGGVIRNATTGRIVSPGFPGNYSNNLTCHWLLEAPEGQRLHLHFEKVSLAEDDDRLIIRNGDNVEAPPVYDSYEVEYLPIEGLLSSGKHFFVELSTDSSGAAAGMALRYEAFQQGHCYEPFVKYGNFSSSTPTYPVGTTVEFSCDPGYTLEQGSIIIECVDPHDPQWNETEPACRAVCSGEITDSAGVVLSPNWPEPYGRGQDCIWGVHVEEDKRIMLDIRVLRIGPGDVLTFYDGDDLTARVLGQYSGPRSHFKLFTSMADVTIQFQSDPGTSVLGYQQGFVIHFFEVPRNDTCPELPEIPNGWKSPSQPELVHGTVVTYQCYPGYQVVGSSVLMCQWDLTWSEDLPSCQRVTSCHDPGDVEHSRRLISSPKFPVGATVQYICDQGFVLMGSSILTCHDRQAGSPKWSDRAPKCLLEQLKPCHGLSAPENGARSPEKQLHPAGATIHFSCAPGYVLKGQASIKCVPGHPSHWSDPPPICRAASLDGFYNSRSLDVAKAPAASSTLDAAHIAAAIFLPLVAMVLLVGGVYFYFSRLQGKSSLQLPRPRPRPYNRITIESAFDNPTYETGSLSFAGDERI
Description: cell-based or functional assay.

B1: ADC-1 (anti-SEZ6 antibody Ab conjugated to TOP1i linker drug LD1, formula (IV), DAR about 6) (antibody, V domains shown)
VH: EVQLVQSGAEVKKPGESLKISCKGSGYSFTSSWINWVRQMPGKGLEWMGRIYPGEGDTNYNGNFEGQVTISADKSISTAYLQWSSLKASDTAMYYCTRGLVMDYWGQGTLVTVSS
VL: EIVLTQSPATLSLSPGERATLSCRASQSVDYNGISYMHWYQQKPGQAPRLLIYAASNVQSGIPARFSGSGSGTDFTLTISSLEPEDFAVYYCQQSIEDPPTFGGGTKVEIKR
modifications: linker drug LD1 (Example 1J, formula (III)) on sulfhydryl groups of cysteine residues after global reduction; positions not given; linker drug LD1 (Example 1J, formula (III)) on sulfhydryl groups of cysteine residues after global reduction; DAR of about 6 over the whole antibody, predominant species n = 6; positions not given
For B1, the “growth inhibitory IC50, CellTiter-Glo cell viability, 10 days, COR-L95 cells (SEZ6 mRNA positive)” value was 0.33 nM; the “growth inhibitory IC50, CellTiter-Glo cell viability, 10 days, NCI-H146 cells (SEZ6 mRNA positive)” value turned out to be 0.05 nM; the “growth inhibitory IC50, CellTiter-Glo cell viability, 10 days, NCI-H524 cells (SEZ6 mRNA positive)” value stood at 0.33 nM; the “growth inhibitory IC50, CellTiter-Glo cell viability, 10 days, NCI-H526 cells (SEZ6 mRNA positive)” value amounted to 0.1 nM. Besides, the “growth inhibitory IC50, CellTiter-Glo cell viability, 10 days, NCI-H1963 cells (SEZ6 mRNA positive)” value is 4.63 nM and the “growth inhibitory IC50, CellTiter-Glo cell viability, 10 days, row without a cell line label below COR-L95 (taken as a second COR-L95 value)” value was determined as 0.29 nM.
